Drawing on PMC3685266, this text covers fold increase in apparent affinity over the SecA (Δcys) control and fold increase in affinity in the presence of proOmpA for one substance.

Experiment [1] has as its target SecA_(D337C/K482C), intramolecularly disulfide cross-linked (clamp closed) (E. coli) (UniProt P10408). The experiment can be described thus: steady-state ATPase activity titration; 0.15 μM SecA, 1 mM ATP, TKM buffer pH 7.5, 0.03% C12E9, 25°C, increasing purified detergent-solubilized SecYEG, with or without 10 mM DTT; apparent affinity from a ligand-binding fit.
Experiment [2] concerns the target SecA_(Δcys), SecA without cysteine residues (E. coli) (UniProt P10408). The experiment in a line: steady-state ATPase activity titration; 80 nM SecA, 1 mM ATP, TKM buffer, increasing vesicles reconstituted with purified SecYEG, with 0.6 μM proOmpA_(Δcys), with or without 10 mM DTT.

For “SecYEG complex (from UniProt P0AGA2 1-443; P0AG96 1-127; P0AG99 1-110)”, the fold increase in apparent affinity over the SecA (Δcys) control in experiment [1] came out at 500 fold. Further, the fold increase in affinity in the presence of proOmpA in experiment [2] was found to be 5 fold.
